Experiments:
[1] = tested on: IL-6R-overexpressing HEK-293 T cells; assay: IL-6R mRNA/protein expression in IL-6R-overexpressing HEK-293 T cells; format: cell-based, human; conditions: CIRP 1 μg/mL for 24 h
Description: The overexpression plasmid for IL-6R was constructed by GenScript Biotech using a pcDNA3.1(+)-3xFLAG-P2A-EGFP vector with a broad-spectrum promoter, non-fusion EGFP fluorescence, and Neo (G418) resistance. The final construct was pcDNA3.1(+)-IL6r-3xFLAG-P2A-EGFP, and a control plasmid (pcDNA3.1(+)-3xFLAG-P2A-EGFP) was also generated.
HEK 293 T cells were cultured in six-well plates to 70–80 % confluence. Cells were divided into control and test groups. For transfection, solution A (plasmid diluted in Opti-MEM) and solution B (Lipofectamine 2000, Life Technologies, USA, diluted in Opti-MEM) were mixed at a 1:2 plasmid-to-lipofectamine ratio. After 6 h, the medium was replaced with DMEM, and GFP fluorescence was observed 24–48 h post-transfection to assess efficiency. Cells were divided into PBS, IL-6R, and CIRP (1 μg/mL for 24 h) groups for further analysis.
RNA was extracted using TRIzol reagent (Invitrogen, 210901). RNA was reverse transcribed into cDNA using Novagen's R323-01 100RXN. qRT-PCR was performed to determine the mRNA levels of Nos2, Tnf, Rela, Mcr1, Arg1, Cirbp, […] and Il6. […]
Brain tissue adjacent to the hemorrhagic striatum was homogenized in lysis buffer with protease inhibitors. […] The supernatant was collected for protein quantification using the BCA method. […]

microglia = assay: Microglial phagocytosis of CFSE-labeled RBCs; format: cell-based, mouse; conditions: CFSE-labeled erythrocytes 10:1, 4 h; TCC pretreatment then CIRP; n = 6
Excerpt: Primary cortical neurons were isolated from embryonic day 16–18 (E16–E18) C57BL/6 mouse embryos as previously described, and cultured in Neurobasal medium supplemented with B27 and GlutaMAX (Gibco).Primary microglial cells were isolated from the cortices of neonatal (day 1) C57BL/6J mice. After disinfection with 75 % ethanol, the skin and skull were removed, and the brains were placed in ice-cold HBSS. The meninges were peeled off, the cortex was collected, and the hippocampus was discarded. Tissues were digested with 0.25 % trypsin at 37 °C for 12 min, centrifuged at 1200 rpm for 5 min, and resuspended in complete medium. The suspension was transferred to a T75 flask with 15 mL of complete medium. After 14 days, microglial cells were harvested by shaking the flask at 270–280 rpm for 30 min, and the supernatant was collected. […]
The functional characteristics of microglial cells encompass not only the release of inflammatory cytokines but also their phagocytic activity. […] RBCs were labeled with either 0.5 μM or 5 μM CFSE, and immunofluorescence analysis determined that 5 μM CFSE was the optimal concentration for labeling (Fig. 7G). […]
RBCs were isolated via density gradient centrifugation and labeled with CFSE before being stereotactically injected into the right striatum. […] Cell viability was assessed using a Fixable Viability Dye, and flow cytometric analysis was subsequently performed. […]

IL-6Rα = conditions: macrophages; cited from earlier work
Excerpt: Previous studies have shown that MD2 binds to a specific 15-amino acid segment of CIRP with high affinity, promoting inflammation. To target this interaction, we designed the peptides TCC and TC using macromolecular docking techniques, with SPR confirming that TCC reduced the binding affinity of CIRP to IL-6Rα.

B1: recombinant human CIRP (cold-inducible RNA-binding protein) (natural protein, UniProt Q14011 1-172, looked up)
chain: MASDEGKLFVGGLSFDTNEQSLEQVFSKYGQISEVVVVKDRETQRSRGFGFVTFENIDDAKDAMMAMNGKSVDGRQIRVDQAGKSSDNRSRGYRGGSAGGRGFFRGGRGRGRGFSRGGGDRGYGGNRFESRSGGYGGSRDYYSSRSQSGGYSDRSSGGSYRDSYDSYATHNE
notes: UniProtKB Q14011 is printed for the docking; also called rhCIRP; human CIRBP; source: recombinant
[1]; qRT-PCR n = 3–6
  Il6 mRNA expression: did not show a significant change between groups
[1]; qRT-PCR n = 3–6, western blot n = 9
  Il6ra mRNA and protein expression: significant upregulation of Il6ra mRNA and protein expression
microglia
  microglial phagocytosis of RBCs: significantly reduced in the CIRP group compared to the PBS group
IL-6Rα
  IL-6Rα as receptor for CIRP: high-affinity receptor for CIRP in macrophages

— publication PMC13227277, “Targeting CIRP and IL-6R-mediated microglial inflammation to improve outcomes in intracerebral hemorrhage” (Journal of Advanced Research, 2025)
